Assay: yeast display, Sf9 membrane polyspecificity reagent, FACS + sequencing; frameworks hold sequencing errors
How it was run: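 Using colony PCR, genes from sorted yeast display clones were amplified, then sequenced on MiSeq at 2 × 250 and filtered by CDR length. The clones had been stained with 10% biotinylated, detergent-solubilized Sf9 membrane reagent for 1 hour at 4 °C and sorted by FACS into low and high (top ~1%) gates on anti-HA and streptavidin fluorescence. Polyreactivity labels come from the gate of origin.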

Row | Sequence | polyreactivity (PSR sort gate)
1 | QVQLVESGGGLVQAGGSLRLSCAASGRIFRGNVMGWYIQAPGKERELVATITSSARTYYADSVKGRFTISRDNAMITVYLQMNSLKPEDTAVYYCAAKTRWNFYYWGQGTQVSVSS | high polyreactivity
2 | QVQLVESGGGLVQAGGSLRLICAASGSTFFDYAMGGYRQAPGKEREFVADIYSNGGSTYYADSVKGRFTFSRDNAKNSVYLQMNSLKPEDTAGYYCAAVLRPRQGRRYDYWGQGTQVTVSS | low polyreactivity
3 | QVQLVESGGGLVQAGGSLRLTCAASGRTFPRYAMGWYRQAPGKERELVAAINSGGSTYYADSVKGRFTISRDNAKNSVYLQMNSLKPEDTAVYYCAAEGYTLGDGVYWIGPYDYWGQGTQLTVSS | high polyreactivity
4 | QVQLVESGGGLVQAGGSLRLSCAASGFIYSGYAIGCYRQAPAKERELVDTNSGSGGSTYYADSVKGRFTISRDNAKNTVYLKMNSLKTEDTAVYYCAARQRGGYGYWGQGTQVTESS | high polyreactivity
5 | QVQLVESGGGLVQAGGSLRLSCAASGFIFTFYAMGWYRQAPGKEREFVASIDWGDGSTYYADSVKGRFTISRDNAKNTVYLQMNSLKPEDSAVYYCAHDYDGYVWDTEYDYWGQGTQVTVSS | low polyreactivity
6 | QVQLVESGGGLVQAGGSLRLSCAASGSIFSWYAMGWYRQAPGKERELVAAITSDGGTNYADSVKGRFTISRDNAKNTVYLQMNRLKPEDTAVYYCAADYWYSWRRSHYAHRYGYWGQGTQVTVSS | low polyreactivity
7 | QVQLVESGGGLVQAGCSLRLSCAASGRTFGTYTKGWYRQAPGKERELVAAIYTRDGSTYYADSVKGRFSISRDNAKNTVYLQMNSLKPDDTAFYYCNAVVRYYDWGYWDYDYWGQGTQVTVSS | low polyreactivity
8 | QVQLVESGGGLVQAGGSLRLSCAATGRIFPYYAMGWYRQAPGKERALVATISSGGRTNYADSVKGRFTISRDNAKNTVYLQMNSLNPEDTAVYYCAADYRKSRVFYGLYYWGQGTQVTVSS | high polyreactivity
9 | QVQLVESGGGLVQAGGSLRLSCAASGFTFSRNDMGWYRQAPGKERELVASITTSGGGTYYADSVKGRFTISRDKAKNTVYLQMNSLKPEDTAVYYCAAEYYSIRYGPHSIEVYGMDYWGQGTQVTVSS | low polyreactivity
10 | QVQLVESGGGLVQAGGSLRLSCAASGSTFYYYARGWYRQAPGKERELVAAIDRDDRTNYADSVKGRFTISRDNAKNTVYLQMNSLKAEDTAVYYCAAVEIYEYDYWGQGTQVTVSS | low polyreactivity
11 | QVQLVESGGGLVQAGGSLRLSCAASGRTFYNYAMGWYRQAPGKERELVAAISGSGGSTYYADSVKGRFTISRDNAKNTVYLQMNSLKPEDTAVYYCAARKDSYYYRSYDSWGQGTQVTVSS | high polyreactivity
12 | QVQLVESGGGLVQAGGILRLSCAASGRIFTSNPMGWYRQAPGKEREFVAAISGSGDGTYYADSVKGRFTISRDTAKNTVYLQMNSLKPEDTAVYYCAARRRGTYPYPMGYWGQGTQVTVSS | high polyreactivity
13 | QVQLVESGGGLVQAGGSLRLSCAASGSIFIVYAMGWYRQAPGKERELVATISWSGGSTSYADSVKGRFTNSRDNAKNTVYLQMNSLKPEDTAFYYCNTLVRITEYDSWGQGTQVTVSS | low polyreactivity
14 | QVQLVESGGGLVQAGGSLRLSCAASGITFPRYAMGWYRQAPGKERELVATITRSGGGTYYADSVKGRFTISRDNAKNTVYLQMNSLKPEDTAVYYCAAGALQRGVYGYGYWGQGTQVTVSS | high polyreactivity
15 | QVQLVESGVGLVQAGGSLRLSCASSGRTFYDYAMGWYRQAPGKERELVATISSRGDGTYYADSVKGRFTISRDYAKITVCLLMNSLKPEDTAVYYCAARYRRVHSGYGYWGQGTHVTVSS | high polyreactivity
16 | QVQLVESGGGLVQAGGSLRLSCAASGSTFVDYAMGRYRQAPGKERELVAAITRSGSSTYYADSVKGRFTISRDIAKNTVYLQMNSLKPEDTAVYYCAAVRYRGLQVKFYYWGQGTQVTVSS | high polyreactivity
17 | QVQLVESGGGLVQAGGSLRLSCAASGRIFLYNVMGWYRQAPGKERELVAAISWSGTRTYYADSVKGRFTISRDNAKNTVYLQMNSLKPEDTAVYYCNACRYYRHDYWGQGTQVTVSS | low polyreactivity
18 | QVQLVESGGGLVQAGGRLRLSCAASVRIFRVYAMGWYRQEPGKERELVAAISWSGGRTYYADSVKGRFTISRDNAKNTVYLQMNSLKPEHTAVYYCAAVSGYALGYDYWGQGTQVTVSS | high polyreactivity
19 | QVQLVESGGGLVQAGGSLRLICAASGITFYYYAMGWYRQAPGKERELVAAISTRSGSTYYADSVKGRFTISRDNAKNTVYLEMNSLKPEDTAVYYCAARYRSAGHRYDYWGQGTQVTVSS | high polyreactivity
20 | QVQLVESGGGLVQAGGSLRLSCAASGSTFLGNVMGWYRQAPGKERELVAAISRGGSRTYYADSVKGRFTISRDNAKNTVYLQMNSLKPEDTAVYYCAAEPYAASRSGEFNYWGQGTQVTVSS | low polyreactivity
21 | QVQLVESGGGLVQAGGSLRLSCAASGRTFGNYVMGWYRQAPGKERELVAAIRSGTNTYYADSVKGRFTISRDNAKNTVYLQMNSLKPEDTAVYYCAAARYTKFDYWGQGTQVTVSS | high polyreactivity
22 | QVQLVESGGGLVQAGGSLRLSCAASGSIFTGNAMGWYREAPGKERELVAAITNGGITNYADSVKRRFTISRDNAMNTVYLQMNSLKPEDTAVYYCAADYVDFYSFRRFDYWGQGTQVTVSS | low polyreactivity

Row | Sequence | polyreactivity (PSR sort gate)
23 | QVQLVESGGGLVQAGGSLRLSCAASGSIFDGYAMGWYRQAPGTERELVAGISGRGTRTYYADSVKGRFTISRDYAMNTVYLQMNSLKPEDTAVYYCNKAGYFHRLKYYYWGQGTQVTVSS | high polyreactivity
24 | QVQLVESGGGLVQAGGSLRLSCAASGSIFRINAMGWYRQAPGKERELVAAISTSGGTTYYADSVKGRFTISRDNAKNTVYLQMNSLKPEDTAVYYCSARRVTSPFGSDSWGQGTQVTVSS | low polyreactivity
25 | QVQLVESGGGLVQAGGSLRLSCAASGNTFGLYAMGWYRQAPGKEREFVADITTDGGTTYYADSVKGRFTISRDNAKNTVYLQMNSLKPEDTAVYYCAKLGTFGQHQYDYWGQGTQVTVSS | low polyreactivity
26 | QVQLVESGGGLVQAGGSLRLICAASGGIFWYYAMGWYRQAPGKERELVATISSGGSTKYADSVKGRFTISRDNAKNTVYLQMNSLKPEDTAVYYCNKVFPNLYIYVVRGLIEMDYWGQGTQVTVSS | low polyreactivity
27 | QVQLVESGGGLVQAGGTLRLSCAATGITFDAYVMGWYRQAPGKERELVAGIYSGGSTYYADSVKGRFTISRDNAKNTVYLQMNSLKPEDTAVYYWARENYRFADEPPVSRQIPYDYWGQGTQVTVSS | low polyreactivity
28 | QVQLVESGGGLVQAGGSLRLSCAASGFTFPWYAMGSSRQAPGKERELVASISYRGDSTYYADSVKGRFTISRDNAKKTVNLQMNSLKPEDTAVYYCNKRLASYYLPGFDYWGQGTQVTVSS | low polyreactivity
29 | QVQLVESGGGLVQAGGSLRKSCAASGRIFSANAIGWYRKAPGTEWELVAAITCSGGSTYYADSVKGRFTISRDTAKNTVYLQMHSLKPEETAVYYCAAESAAYGGGTSDAGYESDYWGQGTQVTVSS | low polyreactivity
30 | QVQLLERGGGLVQAGGSLRLSCMASGSILVDRMSWYRQAPGKEHELVATIYDGGITYYADSMTGRFTISRDNAKNTVYLQMIRQRPEDTAVYYCGASFERYRYHVYCGQGTQVTVSS | low polyreactivity
31 | QVQLVESRGGLVQAGCSLRLSSAASGLIFYFYTMGWYRQAPGKERELVDSIRSGDSTNYADSVKGRFTISRDNAKNTVYLQMNSLKPEDTAVYYCNARYRYPYYLSVAEKYDYWGQGTQVTVSS | high polyreactivity
32 | QVQLVESGRGLVQAGGSLRLRGAASGSTSWSNAMGWYRQAPGKERELVAAITTGASTYYADSVKGRFTSSRDNAKNTVYLQMNSLKPEDTAVYYCAADPWVLWSYYYWGQGTQVTVSS | low polyreactivity
33 | QVQLVESGGGLVQAGGSLRLSCAASGRTFGYYVMGWSRQAPGKETELVAAISNTDSTYYADSVKGRFTISRDNAKNTVYLQMNSLKPEDTAVYYCARDDAYSDFDYDYWGQGTQVTVSS | low polyreactivity
34 | QVQLVESGGGLVQAGGSLRISCAASGSTFGPYAMGWYRQAPGKERELVAAIRWSDGSTYYADSVKGRFTISRDNANNTVYLQMNTLKPEDTAVSYCAVDGYGYNDDYWGQGTQVTVSS | high polyreactivity
35 | QVQLVESGGGLVQAGGSLRLSCAASGRTIASYAMGWYRQAPGKERELVAAITSGGSTYYADSVKGRFTISRDNAKNTVYLQINSLKPEDTAVYYCARKHAIWRGYDYWGQGNQVTVSS | low polyreactivity
36 | QVQLVESGGGLVQAGGSLRLSCAASGFIFWLYAMGWYRQAPGKERELVAAISRSGGRTYYADSVKGRFTISRDNAKNTVYLQMNSLKPEDTAVYYCAKDDNYKSYPYDYWGQGTQVTVSS | high polyreactivity
37 | QVQLVESGGGLVQAGGSLRLSCAASGSIIGRYTMGWYRQAPGKERELVAAISRSGGSTYYADSVKGRFTISRDNAKNTVYLQMNSLKPEDTAVYYCAARYRAKRRYYYWGQGTQVTVSS | high polyreactivity
38 | QVQLVASGGGLVQAGGSLRLSCSASGSIFKYYAMGWYRQAPGKERELVAAISSSGNTYYADSVKGRFTISRDNAKNTVYLQMNSLKPEDTAVYYCAAGIRRYRTYDYWGQGTQVTVSS | high polyreactivity
39 | QVQLVESCGGLVQAGGSLRLSCAASGSTFVYYAMGWYRQAPGKERELVAAISSGGSTYYADSVKGRFTISRDNAKNTVFLQMNSLKPEDTAVYDCAAKFGWGYTTYYYCGQGTQVTVSS | high polyreactivity
40 | QVQLVESGGGLVQAGGSLRLTSAASGFTFYPYAMGWYRQATGKEMELVAAINSGGSTYYADSVKGRFTISRDNAKNSVYLQMNSLKPEDTAVYYCAAYGKRGAVAFYYWGQGTQVTVSS | high polyreactivity
41 | QVQLVESGGGLVQAGGSLRLSCAASGSIFWSYAMGWYRQAPGKERELVAAIRRGGSTNYADSVKGRFTISRDNAKNTVYLQMNSLKPEDTAVYYCAKSRGVRREPPKYATTYNYWGQGTQVTVSS | low polyreactivity
42 | QVQLVESGGGLVQAGGSLRLSCAASGSIFRFYAMGWYRQAPGKERELVAAITSGGSTNYADSVKGRFTISRDNAKNTVYLQMNSLKPEDTAVYYCAAELVYFFIYDYWGQGTQVTVSS | low polyreactivity
43 | QVQLVESGGGLVQAGGSLRLSCAASGYTFFLNVMGWYRQAAGKEWELVAAISYSGGSTNYADSVKGRFTISRDNAKNTVYLQMNSLKPEDTAVYYCAVTTYSGLYGFEYWGQGTQVTVSS | low polyreactivity
